Results reported in patent US20260102528A1 (University of California, published 2026).
Values belong to the binder of their own block, whether it stands above or below them.

Tests used:
[1] = target: T1, V7-AMG510 HLA-A*03:01 MHC-I complex (human); test: competition ELISA: the concentration is that of free AMG510 (small molecule, the varied competitor) preincubated with the Fab; read-out is Fab binding to streptavidin-captured V7-AMG510 HLA-A*03:01, anti-myc IgG-HRP; legend calls the values approximate
T1 construct: also called V7-Sotorasib A*03:01; V7-510 A*03:01
Method: FIG. 3A-3D show characterizations of six V7-AMG510 A*03:01-reactive Fabs. […] Approximate IC₅₀ values for free drug (AMG510) competition for each clone are reported, as derived from FIG. 3C. […] Recombinant V7-AMG510 HLA-A*03:01 was captured via streptavidin in an ELISA and increasing amounts of free AMG510 preincubated with the indicated clones in Fab format before detection of Fab binding with an anti-myc secondary IgG-HRP conjugate. Data are presented as the mean #standard deviation of three replicates. […] Data are presented as the mean±standard deviation of four replicates.

[2] = target: T1, V7-AMG510 HLA-A*03:01 MHC-I complex; test: BLI (Octet), derived from FIG. 3A; biotinylated MHC-I complex on streptavidin biosensor
Method: (§1) Kinetic measurements via Octet. Kinetic constants for Fabs were determined using an Octet RED384 instrument (ForteBio). For screens, a single concentration of Fab (100 nM) was tested, and for kinetic characterization Fabs were tested at several concentrations, as noted in the relevant figure. Biotinylated peptides (1 μM in 1% BSA/PBS) or biotinylated MHC-I complexes (200 nM in 1% BSA/PBS) were immobilized on ForteBio streptavidin SA biosensors for all assays. All measurements were performed in 1% BSA PBS pH 7.4 in 384 well plates. Data were analyzed using a 1:1 interaction model with global fitting on the ForteBio data analysis software (9.0.0.6). KD values were determined by the fitting of either equilibrium or maximum response (nm) as a function of Fab concentration.

[3] = target: T1, V7-AMG510 HLA-A*03:01 MHC-I complex; test: BLI (Octet), Fab on immobilised biotinylated pMHC
Method: as §1

[4] = target: T1, V7-AMG510 HLA-A*03:01 MHC-I complex; test: BLI, Fab on pMHC
Method: as §1

[5] = target: T2, V7-ARS1620 HLA-A*03:01 MHC-I complex (human); test: competition ELISA: the concentration is that of free ARS1620 (small molecule, the varied competitor); read-out is P2B2 IgG-HRP binding to W6/32-captured A*03:01/V7-ARS
T2 construct: also called V7-ARS HLA-A*03:01; V7-ARS A*03:01
Method: The complexes were captured by the conformation-specific antibody W6/32 and detected by the ARS1620-specific antibody (P1A4) in the presence of various amounts of free ARS1620. Data is presented as mean±standard deviation for four replicates.
MHC-I refolding and purification. […] Refolding reactions were performed with various peptides of interest in refolding buffer (100 mM Tris pH 8.0, 400 mM L-Arginine.HCl, 5 mM reduced glutathione, 0.5 mM oxidized glutathione, 2 mM EDTA, and complete protease inhibitor cocktail (Roche)). Briefly, B2m (2 μM) and peptide (10 μM) were diluted into refolding buffer, then denatured heavy chain was added to 1 μM. Reactions proceeded at 10° C. overnight for ELISA assays. MHC-I ELISAs. Black, 384 well Nunc Maxisorp plates were coated with 50 μL of the anti-heavy chain antibody W6/32 (Bio X Cell Cat #BE0079, RRID:AB_1107730) at 5 μg/mL in PBS overnight. The plate was washed twice with PBS (100 μL) and blocked with 3% BSA PBS (120 μL) for 1 hour at room temperature. Plates were then washed three times with 0.05% Tween-20 PBS (PBST) (100 μL). Refolded MHC complexes (crude or FPLC purified) were diluted 10× into 1% BSA PBS and 50 μL added to wells in quadruplicate. Plates were incubated at room temperature with shaking for 1 hour, then washed three times with 1% BSA PBS (100 μL).

[6] = target: T3, K5-ARS1620 HLA-A*02:01 MHC-I complex (human); test: BLI (Octet), Fab on immobilised biotinylated pMHC
T3 construct: also called K5-ARS HLA-A*02:01
Method: as §1

[7] = target: T2, V7-ARS1620 HLA-A*03:01 MHC-I complex; test: BLI (Octet), Fab on immobilised biotinylated pMHC
Method: as §1

B1: P1H4 Fab (Fab, V domains shown)
VH: EVQLVQSGAEVKKPGSSVKVSCKASGGTFSSYAISWVRQAPGQGLEWMGGIIPIFGTANYAQKFQGRVTITADKSTSTAYMELSSLRSEDTAVYYCAFNYYDSSGYSDYWGQGTLVTVSS
VL: ETTLTQSPGTLSLSPGERATLSCRASQSVSSSYLAWYQQKPGQAPRLLIYGASSRATGIPDRFSGSGSGTDFTLTISRLEPGDFAVYYCQQYGTSPITFGQGTRLEIKR
- AMG510 IC50 [1]: ~930 nM
- Kd [2]: 59 nM

B3: P1B7 Fab (Fab, V domains shown)
VH: QVQLQQSGPGLVKPSQTLSLTCAISGDSVSSNSVAWNWIRQSPSRGLEWLGRTYYRSKWYSDYAVSVKSRITINPDTSKNQFSLQLTSMTPEDTAVYYCAREGVTMGPGAFDIWGQGTMVTVSS
VL: QSALTQPPSVSGSPGQSVTISCTGSSSDVGHYNRVSWYQQSPGTAPKLMIYDVSNRPSGAFSRFSGSRSGNTASLTISGLQPEDEADYYCSSHRTGYTVEVFGTGTKVTVLG
- Kd [4]: 15 nM

B4: P2B2 IgG-HRP conjugate (antibody, V domains shown)
VH: QVQLVESGGGVVQPGRYLRLSCATSGFTFSNYAMHWVRQAPGKGLEWVALISYDGSNKYYADSVKGRFTISRDKSTNALYLQMNSLRVEDTAVYYCARERVPWDYYGMDVWGQGTTVTVSS
VL: QSVVTQPPSVSAAPGHKVSISCSGSNSNIGHNYVSWYQQFPGTAPKLLVYRDDNRPSEVPDRFSGSKSGTSATLGITGLQTADEADYYCGTWDSTLQHVVFGGGTKLTVL
notes: also called V7-ARS-HLA-A*03:01-specific antibody P2B2
- IC50 of free ARS1620 [5]: 445 nM

B5: P2B2 Fab (Fab, V domains shown)
VH: B4 VH
VL: QSVVTQPPSVSAAPGHKVSISCSGSNSNIGHNYVSWYQQFPGTAPKLLVYRDDNRPSEVPDRFSGSKSGTSATLGITGLQTADEADYYCGTWDSTLQHVVFGGGTKLTVLS
notes: also called P282
- Kd [6]: 470 nM
- Kd [7]: 43 nM

B8: P1C10 Fab (Fab, V domains shown)
VH: QVQLVQSGGGLVKPGGSLRLSCAASGFTFSSYSMNWVRQAPGKGLEWVSYISSRGRTIYYADSVKGRFTISRDNAKNSLYLQMNSLRAEDTAVYYCVRDVPGVWGFAYWGQGTLVTVSS
VL: QSVVTQPPSVSAAPGQKVTISCSGSSSNIGNHYVSWYQQLPGTAPKLLIYDDGKRPSGIPDRFSGSKSGTSATLGITGLQTGDEADYYCATWDNSLSVVLFGGGTKLTVLG
- Kd [6]: 320 nM
- Kd [7]: 59 nM

B9: P2E3 Fab (Fab, V domains shown)
VH: QVQLQESGPGLVKPSETLSLTCTVSGGSVSSSSYYWGWIRQPPGEGLEWIGSIYYSGSTYYNPSLKSRVTISVDTSKNQFSLKLSSVTAADTAVYYCATRLRGSFDYWGQGTLVTVSS
VL: DVVMTQSPLSLPVTPGEAASISCRSSQSLLHSNGYTYLDWYLQKPGQSPRLLIYSGSNRASGVPDRFSGSGSGTDFTLKISRVEAEDVGVYYCMQGTHWPYTFGQGTRLEIKR
- Kd [2]: 68 nM

Second part, the binder after the results:

- AMG510 IC50 [1]: ~200 nM
- Kd [3]: 13 nM
B2: P1E5 Fab (Fab, V domains shown)
VH: QVQLQESGGGVVQPGRSLRLSCAASGFTFSSYEMNWVRQAPGKGLEWVAVISYDGSNKYYADSVKGRFTISRDNSKNTLYLQMNSLRAEDTAVYYCARDAYSGWFDYWGQGTLVTVSS
VL: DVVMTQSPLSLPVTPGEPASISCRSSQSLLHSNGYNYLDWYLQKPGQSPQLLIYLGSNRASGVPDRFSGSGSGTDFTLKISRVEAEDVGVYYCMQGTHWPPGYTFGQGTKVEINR

- AMG510 IC50 [1]: ~74 nM
- Kd [2]: 29 nM
B6: P2B6 Fab (Fab, V domains shown)
VH: QLQLQESGPGLVKPSETLSLTCTVSGVSISSRSDHWGWVRQPPGKGLEWIGSISYSGSTYYNPSLKSRVTISVDTSKNQLSLKLTSVTAADTAVYYCARRALAQQLVMDVWGQGTTVTVSS
VL: DVVMTQSPLSLPVTPGEPASISCRSSQSLLRNNGYNYLDWYLQKPGQSPQLLIYLGSNRASGVPDRFSGSGSGRDFTLKISRVEAEDVGIYYCMQGAHWPYTFGQGTNLEISR

- AMG510 IC50 [1]: ~1500 nM
- Kd [3]: 230 nM
B7: P2C1 Fab (Fab, V domains shown)
VH: EVQLVQSGAEVKKPGSSVKVSCKASGGTFSSYAISWVRQAPGQGLEWMGIINPSGGSTSYAQKFQGRVTMTRDTSTSTVYMELSSLRSEDTAVYYCARDLGTIFEANGAFDIWGQGTMVTVSS
VL: QSALTQPASVSGSPGQSITISCTGTSSDVGSYNLVSWYQQHPGKAPKLMIYDVSNRPSGVSNRFSGSKSGNTASLTISGLQAEDEADYYCSSYTSSSTLVFGTGTNVTVLG
